Patent US20080221057A1, “SECRETED PROTEIN CCDC80 REGULATES ADIPOCYTE DIFFERENTIATION” (Wyeth, priority 2007, published 2008)

What was measured:
Format in all cases: cell-based, mouse
3T3-L1 cells [1] = assay: 3T3-L1 adipocyte differentiation, lipid accumulation by oil red O staining; conditions: data not shown
Experimental: 3T3-L1 cells were maintained in DMEM containing 20% calf serum in an atmosphere of 10% CO2 at 37° C. Two days post-confluence, cells were induced to differentiate into adipocyte using DMEM containing 10% FBS supplemented with 500 μM 3-isobutyl-1-methylxanthine, 1 μM dexamethasone and 1.7 μM insulin for 4 days, followed by DMEM containing 10% FBS and 0.85 μM insulin for 2 days, then DMEM containing only 10% FBS for an additional 2-4 days. Neutral lipid accumulation in formalin-fixed adipocytes was determined by oil red O staining according to methods well known in the art.

Ccdc80 mRNA [2] = assay: Ccdc80 mRNA expression in growth-arrested 3T3-L1 cells treated with adipogenic inducers, real-time PCR; conditions: growth-arrested 3T3-L1 cells treated with one or more adipogenic inducers for 96 hr
Experimental: RNA from undifferentiated and differentiated 3T3-L1 adipocytes, tissues from normal, 8- to 12-week-old male C57BL/6J mice, as well as tissues from 10-week-old male ob/ob and age-matched wild-type control mice, was obtained as described (Lake et al., J. Lipid Res 46:2477-2487, 2005). For thiazolidinedione (TZD) treatment, 10-week-old male ob/ob mice were gavaged once per day with 15 mg/kg rosiglitazone or vehicle for 21 days. Primary adipocytes and stromal vascular fraction were prepared from the epididymal adipose tissue of 8- to 12-week-old male C57BL/6J mice as described (Lake et al., J. Lipid Res 46:2477-2487, 2005). Total RNA was extracted using Trizol (Invitrogen) and purified using the RNeasy kit (Qiagen). RNA from human tissues was obtained from Clontech (Mountain View, Calif.). […] Biol. Chem. 281:27167-27177, 2006). Gene expression was also measured by real-time PCR. (n=3-6 mice per group)*p<0.05. Taqman real-time quantitative PCR was performed on a 7900HT fast real-time PCR system (Applied Biosystems) according to the manufacturer's instructions using 18S as an endogenous control as described before (Lake et al., J. Lipid Res 46:2477-2487, 2005). Pre-designed gene-specific primers and probes were obtained from Applied Biosystems. […] Neutral lipid accumulation in formalin-fixed adipocytes was determined by oil red O staining according to methods well known in the art.

Ccdc80 = assay: Secretion of Ccdc80 from 3T3-L1 cells, western blot of conditioned medium; conditions: growth-arrested and terminally differentiated 3T3-L1, vs non-silencing shRNA
Experimental: The Ccdc80-FLAG containing expression vector (pSMED2-Ccdc80-FLAG), as well as a control vector (pSMED2) were transfected into HEK293 T cells. In particular, HEK293T were seeded at a density of 2×10^6 cells in 10-cm Petri dishes. Cells were transfected with pSmed2 or pSmed2-Ccdc80-FLAG using Fugene6 (Roche). Two days after transfection, cells were placed in serum-free DMEM and medium was collected 24 hr later. Endogenous secretion of Ccdc80 was evaluated in 3T3-L1 preadipocytes and fully differentiated adipocytes. 3T3-L1 cells were rinsed twice with PBS and incubated in serum-free DMEM for 48 hrs before medium was collected. Conditioned media were analyzed by 4-10% SDS-PAGE followed by silver staining or immunological detection with anti-FLAG M2 (293T) or anti-Ccdc80 (3T3-L1) antibodies.

3T3-L1 cells [3] = assay: Proliferation of 3T3-L1 pre-adipocytes; conditions: stable retroviral expression in 3T3-L1 cells
[4] = tested on: TCF-mediated transcriptional activity; assay: TOPFLASH luciferase reporter assay in 3T3-L1 cells; conditions: vs non-silencing shRNA
Experimental: HepG2 cells were seeded at a density of 8×10^4 cells per well in 24-well plates and grown for 24 hr in antibiotic-free DMEM containing 10% FBS. Cells were transfected with 0.8 μg TOPFLASH and 0.2 μg β-galactosidase reporter plasmids using Lipofectamine 2000 (Invitrogen), rinsed with PBS 4 hr later and infected with adenovirus encoding either GFP or Ccdc80 in opti-MEM. Serum (final concentration: 10% FBS) was added to each well 2 hr after infection and cells were collected 24 hr later. 3T3-L1 cells were seeded at a density of 2.5×10^5 cells per well in 24-well plates. Cells were transfected with 1 μg TOPFLASH and 0.2 μg β-galactosidase reporter plasmids using Fugene 6 and grown in DMEM containing 20% calf serum until 2 days post-confluency. Cells were collected prior to and 24, 48 and 96 hr after induction of differentiation with insulin, 3-isobutyl-1-methylxanthine and dexamethasone as described above. Luciferase and β-galactosidase activities were measured according to manufacturer's instructions (Promega). Luciferase value was normalized to β-galactosidase activity.

Akt and ERK = assay: Insulin stimulation and immunoblot analysis of Akt and ERK phosphorylation in 3T3-L1 cells; conditions: Ccdc80-KD cells
Experimental: Differentiated 3T3-L1 adipocytes were deprived of serum for 2 hr before stimulation with 10 nM insulin for 10 min. Cells were rinsed twice in ice-cold PBS and lysed as previously described (Tremblay and Marette, J. Biol. Chem. 276:38052-38060, 2001). Equal amounts of proteins were separated on 4-12% SDS-PAGE and transferred to nitrocellulose membranes. Phosphorylation of Akt (Ser473) and ERK-½ (Thr202/Tyr204) was determined using phospho-specific antibodies (Cell Signaling Technologies).

[5] = tested on: Wnt/β-catenin signaling pathway; assay: Wnt/β-catenin pathway gene expression in 3T3-L1 cells, real-time PCR low-density array
Experimental: (§1) RNA from undifferentiated and differentiated 3T3-L1 adipocytes, tissues from normal, 8- to 12-week-old male C57BL/6J mice, as well as tissues from 10-week-old male ob/ob and age-matched wild-type control mice, was obtained as described (Lake et al., J. Lipid Res 46:2477-2487, 2005). For thiazolidinedione (TZD) treatment, 10-week-old male ob/ob mice were gavaged once per day with 15 mg/kg rosiglitazone or vehicle for 21 days. Primary adipocytes and stromal vascular fraction were prepared from the epididymal adipose tissue of 8- to 12-week-old male C57BL/6J mice as described (Lake et al., J. Lipid Res 46:2477-2487, 2005). Total RNA was extracted using Trizol (Invitrogen) and purified using the RNeasy kit (Qiagen). RNA from human tissues was obtained from Clontech (Mountain View, Calif.). Gene expression profiling was performed using the Mouse Genome 430 2.0 array (Affymetrix) as previously described (Berasi et al., J. Biol. Chem. 281:27167-27177, 2006). Gene expression was also measured by real-time PCR. (n=3-6 mice per group)*p<0.05. Taqman real-time quantitative PCR was performed on a 7900HT fast real-time PCR system (Applied Biosystems) according to the manufacturer's instructions using 18S as an endogenous control as described before (Lake et al., J. Lipid Res 46:2477-2487, 2005). Pre-designed gene-specific primers and probes were obtained from Applied Biosystems. Data shown in FIGS. 1A-E and 1G, FIG. 3 B-D, FIG. 4D, FIG. 5A, C, D, FIG. 6, and FIG. 7A are obtained by real-time PCR; data shown in FIG. 1F, and FIG. 4C are derived from microarray analysis.

3T3-L1 cells [6] = assay: mRNA expression of genes involved in adipogenesis, metabolism and signaling in 3T3-L1 cells (microarray, real-time PCR)
Experimental: as §1

Ccdc80 mRNA [7] = assay: Silencing of Ccdc80 by RNA interference in stable 3T3-L1 cell lines, Ccdc80 mRNA by real-time PCR; conditions: stable 3T3-L1 line, vs non-silencing shRNA
Experimental: RNA from undifferentiated and differentiated 3T3-L1 adipocytes, tissues from normal, 8- to 12-week-old male C57BL/6J mice, as well as tissues from 10-week-old male ob/ob and age-matched wild-type control mice, was obtained as described (Lake et al., J. Lipid Res 46:2477-2487, 2005). For thiazolidinedione (TZD) treatment, 10-week-old male ob/ob mice were gavaged once per day with 15 mg/kg rosiglitazone or vehicle for 21 days. Primary adipocytes and stromal vascular fraction were prepared from the epididymal adipose tissue of 8- to 12-week-old male C57BL/6J mice as described (Lake et al., J. Lipid Res 46:2477-2487, 2005). Total RNA was extracted using Trizol (Invitrogen) and purified using the RNeasy kit (Qiagen). RNA from human tissues was obtained from Clontech (Mountain View, Calif.). Gene expression profiling was performed using the Mouse Genome 430 2.0 array (Affymetrix) as previously described (Berasi et al., J. Biol. Chem. 281:27167-27177, 2006). Gene expression was also measured by real-time PCR. (n=3-6 mice per group)*p<0.05. Taqman real-time quantitative PCR was performed on a 7900HT fast real-time PCR system (Applied Biosystems) according to the manufacturer's instructions using 18S as an endogenous control as described before (Lake et al., J. Lipid Res 46:2477-2487, 2005). Pre-designed gene-specific primers and probes were obtained from Applied Biosystems. […]

[8] = Ccdc80-KD cells, end of differentiation, microarray

N#CC(=C(/N)Sc1ccccc1N)/C(C#N)=C(\N)Sc1ccccc1N [U0126]
reversal of inhibited adipogenesis phenotype (3T3-L1 cells [1]; Ccdc80-KD cells, 1 or 10 μM): no reversal of phenotype | adipogenesis of control cells (3T3-L1 cells [1]; control cells, treatment during clonal expansion): inhibited adipogenesis

CC(C)Cn1c(=O)n(C)c(=O)c2[nH]cnc21 [IBMX, 3-isobutyl-1-methylxanthine]
Ccdc80 mRNA levels (Ccdc80 mRNA [2]): significantly reduce

insulin
Ccdc80 mRNA levels (Ccdc80 mRNA [2]): significantly reduce

B1: Ccdc80 shRNA: short hairpin RNA against mouse Ccdc80 (position 2015-2037), encoded by SEQ ID NO: 3, expressed from a retroviral vector (nucleic acid)
chain: UGCUGUUGACAGUGAGCGCCCUGAGAAGGAGAAGAAGAAAUAGUGAAGCCACAGAUGUAUUUCUUCUUCUCCUUCUCAGGUUGCCUACUGCCUCGGA
secretion of Ccdc80 protein (Ccdc80): markedly blunted the secretion | proliferation of pre-adipocyte (3T3-L1 cells [3]): increased | TOPFLASH activity ([4]; growth arrest (T=0)): similar | TOPFLASH activity ([4]; throughout clonal expansion (24, 48 and 96 hr after induction)): significantly more elevated | insulin-stimulated phosphorylation of Akt and ERK1/2 (Akt and ERK; 10 nM insulin for 10 min): unaffected | basal phosphorylation of ERK1/2 (Akt and ERK; no insulin): elevated | repression of Cyclin D1 mRNA levels by adipogenic inducers during clonal expansion ([5]; 3T3-L1, change from growth arrest to clonal expansion, adenovirus at MOI 2000): severely compromised | expression of β-catenin signaling mediators (APC, β-catenin, Dvl-1, Frizzled-1, GSK3 A, LRP5/6 and Wnt10b) ([5]; Ccdc80-KD cells during differentiation): Only very little changes | TCF4 mRNA levels ([5]; Ccdc80-KD cells, after terminal differentiation): increased | expression of LEF1 ([5]; Ccdc80-KD cells, following clonal expansion): down-regulation | ability to differentiate into adipocytes (oil red O staining) (3T3-L1 cells [1]; knockdown cell line, end of the differentiation protocol): reduced oil red O staining | expression of GLUT1 (3T3-L1 cells [6]; Ccdc80-KD cells): unchanged | expression of GLUT4 (3T3-L1 cells [6]; Ccdc80-KD cells): decreased | expression of C/EBPα and PPARγ (3T3-L1 cells [6]; [8]): significantly decreased | expression of KLF5 and TCF4 (3T3-L1 cells [6]; [8]): significantly increased | expression of genes involved in lipid metabolism (aP2, CD36, DGAT1/2, LIPIN1, LPL and SCD1/2) (3T3-L1 cells [6]; [8]): impaired | magnitude of induction of aP2, C/EBPα and PPARγ during clonal expansion (3T3-L1 cells [6]; Ccdc80-KD cells, real-time PCR, maintained throughout terminal differentiation): severely attenuated | expression of common mediators of the insulin signaling pathway (3T3-L1 cells [6]; control vs knockdown cells): no obvious difference | reduction of the expression of Ccdc80 (Ccdc80 mRNA [7]): 40-50%
